Measured values taken from publication PMC9482650, “Quantitative fragmentomics allow affinity mapping of interactomes” (Nature Communications, 2022).

T1: APBA1_1, Q02410
T1 sequence (Q02410 651-752, limits assumed, looked up): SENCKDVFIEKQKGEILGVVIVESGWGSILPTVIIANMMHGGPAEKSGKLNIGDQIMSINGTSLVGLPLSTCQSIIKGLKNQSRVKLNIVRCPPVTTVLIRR

T2: GRIP1_2, Q9Y3R0
T2 sequence (Q9Y3R0 145-248, limits assumed, looked up): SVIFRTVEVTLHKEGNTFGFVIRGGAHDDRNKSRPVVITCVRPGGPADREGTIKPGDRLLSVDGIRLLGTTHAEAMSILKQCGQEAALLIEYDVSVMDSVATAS

T3: LNX2_3, Q8N448
T3 sequence (Q8N448 463-564, limits assumed, looked up): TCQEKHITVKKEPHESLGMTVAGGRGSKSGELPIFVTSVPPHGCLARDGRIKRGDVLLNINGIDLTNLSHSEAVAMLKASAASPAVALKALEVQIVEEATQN

T4: MPDZ_12, O75970
T4 sequence (O75970 1857-1958, limits assumed, looked up): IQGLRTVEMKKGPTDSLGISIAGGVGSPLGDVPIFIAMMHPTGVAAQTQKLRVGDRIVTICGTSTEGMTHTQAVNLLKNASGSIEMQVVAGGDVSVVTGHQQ

T5: MPDZ_5, O75970
T5 sequence (O75970 695-796, limits assumed, looked up): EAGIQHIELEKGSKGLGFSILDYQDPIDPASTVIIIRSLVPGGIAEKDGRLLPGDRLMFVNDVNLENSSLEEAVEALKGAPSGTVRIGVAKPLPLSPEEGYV

T6: PDZD2_2, O15018
T6 sequence (O15018 329-429, limits assumed, looked up): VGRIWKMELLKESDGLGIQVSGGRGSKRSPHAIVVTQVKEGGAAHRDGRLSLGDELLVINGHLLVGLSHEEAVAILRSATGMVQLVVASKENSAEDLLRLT

T7: PTPN13_1, Q12923
T7 sequence (Q12923 1088-1188, limits assumed, looked up): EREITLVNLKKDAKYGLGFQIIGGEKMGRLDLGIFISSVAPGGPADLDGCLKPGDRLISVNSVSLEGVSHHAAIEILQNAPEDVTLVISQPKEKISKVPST

T8: RAPGEF6, Q8TEU7
T8 sequence (Q8TEU7 525-625, limits assumed, looked up): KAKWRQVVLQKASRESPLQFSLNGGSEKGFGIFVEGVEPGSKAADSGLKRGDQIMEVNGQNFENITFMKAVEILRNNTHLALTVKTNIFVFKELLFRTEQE

T9: RHPN1, Q8TCX5
T9 sequence (Q8TCX5 508-602, limits assumed, looked up): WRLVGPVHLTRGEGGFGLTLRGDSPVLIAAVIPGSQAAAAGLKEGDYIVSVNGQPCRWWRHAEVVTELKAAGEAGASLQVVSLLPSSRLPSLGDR

T10: TIAM2, Q8IVF5
T10 sequence (Q8IVF5 885-986, limits assumed, looked up): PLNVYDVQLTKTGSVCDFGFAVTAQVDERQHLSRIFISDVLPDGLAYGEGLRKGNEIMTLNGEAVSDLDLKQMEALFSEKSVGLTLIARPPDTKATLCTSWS


Assays:
Test in all cases: holdup assay
Design in all cases: key: below the threshold = too weak to quantify, mostly under pKd 3.1 to 4
Details in all cases: plain residues with an end cap or a label only (N-terminal biotin on a linker: ado-ado)
APBA1_1, Q02410 = target: T1, APBA1_1, Q02410
DLG1_1, Q12959 = target: DLG1_1, Q12959
DLG2_3, Q15700 = target: DLG2_3, Q15700
DLG4_1, P78352 = target: DLG4_1, P78352
DLG4_3, P78352 = target: DLG4_3, P78352
FRMPD2_1, Q68DX3 = target: FRMPD2_1, Q68DX3
FRMPD3, Q5JV73 = target: FRMPD3, Q5JV73
GRIP1_2, Q9Y3R0 = target: T2, GRIP1_2, Q9Y3R0
GRIP2_3, Q9C0E4 = target: GRIP2_3, Q9C0E4
GRIP2_7, Q9C0E4 = target: GRIP2_7, Q9C0E4
HTRA2, O43464 = target: HTRA2, O43464
Inadl_1, Q8NI35 = target: Inadl_1, Q8NI35
LAP2, Q96RT1 = target: LAP2, Q96RT1
LNX1_2, Q8TBB1 = target: LNX1_2, Q8TBB1
LNX2_3, Q8N448 = target: T3, LNX2_3, Q8N448
MAGI2_2, Q86UL8 = target: MAGI2_2, Q86UL8
MAST2, Q6P0Q8 = target: MAST2, Q6P0Q8
MPDZ_12, O75970 = target: T4, MPDZ_12, O75970
MPDZ_5, O75970 = target: T5, MPDZ_5, O75970
NHERF4_1, Q86UT5-2 = target: NHERF4_1, Q86UT5-2
NOS1, P29475 = target: NOS1, P29475
PARD3_3, Q8TEW0 = target: PARD3_3, Q8TEW0
PDZD2_2, O15018 = target: T6, PDZD2_2, O15018
PTPN13_1, Q12923 = target: T7, PTPN13_1, Q12923
RAPGEF6, Q8TEU7 = target: T8, RAPGEF6, Q8TEU7
RHPN1, Q8TCX5 = target: T9, RHPN1, Q8TCX5
SNX27, Q96L92 = target: SNX27, Q96L92
TIAM2, Q8IVF5 = target: T10, TIAM2, Q8IVF5

Sequence of LNX1_2, Q8TBB1 (Q8TBB1 371-470): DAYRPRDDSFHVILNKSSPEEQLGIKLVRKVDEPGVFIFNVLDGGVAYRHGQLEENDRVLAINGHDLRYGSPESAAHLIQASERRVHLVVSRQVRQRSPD
Sequence of MAGI2_2, Q86UL8 (Q86UL8 410-522): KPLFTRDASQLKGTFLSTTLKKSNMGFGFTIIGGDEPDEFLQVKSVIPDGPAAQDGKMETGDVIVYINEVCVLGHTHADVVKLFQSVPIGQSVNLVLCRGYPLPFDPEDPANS
Sequence of NOS1, P29475 (P29475 9-101): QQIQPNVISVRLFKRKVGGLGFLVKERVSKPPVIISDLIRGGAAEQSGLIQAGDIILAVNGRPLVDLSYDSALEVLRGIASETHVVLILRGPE
Sequence of FRMPD3, Q5JV73 (Q5JV73 12-100): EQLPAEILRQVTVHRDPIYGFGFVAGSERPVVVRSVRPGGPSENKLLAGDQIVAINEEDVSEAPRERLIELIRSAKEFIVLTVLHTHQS
Sequence of HTRA2, O43464 (O43464 355-458): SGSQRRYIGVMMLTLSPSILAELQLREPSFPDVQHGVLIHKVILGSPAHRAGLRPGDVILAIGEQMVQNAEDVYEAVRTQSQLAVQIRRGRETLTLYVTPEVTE
Sequence of Inadl_1, Q8NI35 (Q8NI35 113-229): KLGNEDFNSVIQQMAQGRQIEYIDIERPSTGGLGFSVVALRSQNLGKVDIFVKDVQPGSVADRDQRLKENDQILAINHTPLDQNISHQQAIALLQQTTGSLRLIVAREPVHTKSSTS
Sequence of GRIP2_3, Q9C0E4 (Q9C0E4 238-339): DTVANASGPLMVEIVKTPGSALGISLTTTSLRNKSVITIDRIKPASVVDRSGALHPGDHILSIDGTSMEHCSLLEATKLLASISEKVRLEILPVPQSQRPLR
Sequence of PARD3_3, Q8TEW0 (Q8TEW0 582-685): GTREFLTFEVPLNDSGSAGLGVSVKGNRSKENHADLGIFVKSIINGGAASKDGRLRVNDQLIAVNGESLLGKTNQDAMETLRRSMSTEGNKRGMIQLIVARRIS
Sequence of FRMPD2_1, Q68DX3 (Q68DX3 770-861): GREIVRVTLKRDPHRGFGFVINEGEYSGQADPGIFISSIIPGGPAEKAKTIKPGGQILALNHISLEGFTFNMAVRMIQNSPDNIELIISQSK
Sequence of MAST2, Q6P0Q8 (Q6P0Q8 1099-1202): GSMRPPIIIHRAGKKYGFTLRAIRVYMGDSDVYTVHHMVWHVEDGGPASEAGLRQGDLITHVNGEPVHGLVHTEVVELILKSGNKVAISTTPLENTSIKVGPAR
Sequence of DLG4_1, P78352 (P78352 62-152): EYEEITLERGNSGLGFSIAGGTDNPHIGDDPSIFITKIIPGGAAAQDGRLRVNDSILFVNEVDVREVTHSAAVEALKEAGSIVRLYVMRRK
Sequence of DLG4_3, P78352 (P78352 306-403): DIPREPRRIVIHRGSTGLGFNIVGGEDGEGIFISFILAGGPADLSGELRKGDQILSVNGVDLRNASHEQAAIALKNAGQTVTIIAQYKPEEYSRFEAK
Sequence of NHERF4_1, Q86UT5-2 (Q86UT5 other isoform, or with tags, fused parts or gaps): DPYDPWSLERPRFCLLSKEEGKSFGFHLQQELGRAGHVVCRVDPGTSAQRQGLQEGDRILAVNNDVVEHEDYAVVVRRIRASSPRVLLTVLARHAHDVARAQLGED
Sequence of GRIP2_7, Q9C0E4 (Q9C0E4 934-1023): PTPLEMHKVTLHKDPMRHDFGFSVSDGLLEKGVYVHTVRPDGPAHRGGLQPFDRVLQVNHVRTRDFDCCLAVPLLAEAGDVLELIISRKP
Sequence of LAP2, Q96RT1 (Q96RT1 other isoform, or with tags, fused parts or gaps): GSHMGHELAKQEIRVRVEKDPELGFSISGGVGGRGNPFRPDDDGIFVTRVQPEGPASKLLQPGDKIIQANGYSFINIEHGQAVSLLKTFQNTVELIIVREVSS

| pKd (APBA1_1, Q02410) | pKd (DLG1_1, Q12959) | pKd (DLG2_3, Q15700) | pKd (DLG4_1, P78352) | pKd (DLG4_3, P78352) | pKd (FRMPD2_1, Q68DX3) | pKd (FRMPD3, Q5JV73) | pKd (GRIP1_2, Q9Y3R0) | pKd (GRIP2_3, Q9C0E4) | pKd (GRIP2_7, Q9C0E4) | pKd (HTRA2, O43464) | pKd (Inadl_1, Q8NI35) | pKd (LAP2, Q96RT1) | pKd (LNX1_2, Q8TBB1) | pKd (LNX2_3, Q8N448) | pKd (MAGI2_2, Q86UL8) | pKd (MAST2, Q6P0Q8) | pKd (MPDZ_12, O75970) | pKd (MPDZ_5, O75970) | pKd (NHERF4_1, Q86UT5-2) | Binder | other results |
| --- | --- | --- | --- | --- | --- | --- | --- | --- | --- | --- | --- | --- | --- | --- | --- | --- | --- | --- | --- | --- | --- |
| below the threshold | below the threshold | below the threshold | below the threshold | below the threshold | below the threshold | below the threshold | below the threshold | below the threshold | below the threshold | below the threshold | below the threshold | below the threshold | below the threshold | below the threshold | below the threshold | below the threshold | below the threshold | below the threshold | 3.69 | NSTHNLKDYV [CLDN20, P56880] | pKd (NOS1, P29475): 3.58; pKd (PARD3_3, Q8TEW0): below the threshold; pKd (PDZD2_2, O15018): 4.56; pKd (PTPN13_1, Q12923): below the threshold; pKd (RAPGEF6, Q8TEU7): below the threshold; pKd (RHPN1, Q8TCX5): below the threshold; pKd (SNX27, Q96L92): below the threshold; pKd (TIAM2, Q8IVF5): below the threshold |
| below the threshold | 4.22 | 4.24 | 4.26 | 3.71 | below the threshold | below the threshold | below the threshold | below the threshold | below the threshold | below the threshold | below the threshold | 3.98 | 3.78 | below the threshold | 4.29 | 5.82 | 3.84 | below the threshold | 4.2 | TKEIPNCTSV [SORCS3, Q9UPU3] | pKd (NOS1, P29475): 3.57; pKd (PARD3_3, Q8TEW0): below the threshold; pKd (PDZD2_2, O15018): 4.72; pKd (PTPN13_1, Q12923): below the threshold; pKd (RAPGEF6, Q8TEU7): below the threshold; pKd (RHPN1, Q8TCX5): 3.81; pKd (SNX27, Q96L92): 5.16; pKd (TIAM2, Q8IVF5): below the threshold |
